Key:
[1] = biological target: T1, human FcRn on HEK293 cells (human, UniProt P55899 24-365; P61769 21-119); experiment: FACS competition on hFcRn HEK293 cells at pH 6.0; remaining binding of 100 nM Alexa488-labeled hIgG1 (m14) with 500 nM competitor antibody, percent of the tube without competitor
T1 construct: whole, on cells; also called hFcRn
Description: In stable HEK293 cells expressing human FcRn, the blocking of the antibody against FcRn was analyzed by FACS. The antibody was diluted in binding buffer (PBS pH 6.0, 10 mM EDTA) at concentrations of 2,000 nM, […] to make 50 μl of dilutions, which were dispensed into tubes. […] Stable HEK293 cells were diluted in binding buffer at a concentration of 2,500,000 cells/ml, and 40 μl of the cell dilution was added to each of the labeled antibody-containing tubes. Thus, a final volume of 100 μl contained 100,000 cells, 100 nM labeled antibody and 1000 nM, 500 nM or 250 nM competitor antibody. The cells were washed once with 150 μl of buffer (pH 6.0), and pellets were obtained therefrom and resuspended in 150 μl of buffer having pH difference. The suspension was transferred into a tube for FACS analysis. The cells were analyzed by FACS using BD FACSDiva™ v6.1.3 software (BD Bioscience). The results of the analysis were expressed as mean fluorescence intensity (MFI).
The MFI of the test group was processed after subtracting the MFI (background signal) measured in cells alone.

rat FcRn on Rat-2 cells = biological target: T2, rat FcRn on Rat-2 cells (rat, UniProt P13599 23-366; P07151 21-119); experiment: FACS on rat FcRn-expressing Rat-2 cells at pH 6.0 and pH 7.4, FITC anti-human IgG goat antibody; MFI relative to hIgG
T2 construct: whole, on cells
T2 sequence (looked up): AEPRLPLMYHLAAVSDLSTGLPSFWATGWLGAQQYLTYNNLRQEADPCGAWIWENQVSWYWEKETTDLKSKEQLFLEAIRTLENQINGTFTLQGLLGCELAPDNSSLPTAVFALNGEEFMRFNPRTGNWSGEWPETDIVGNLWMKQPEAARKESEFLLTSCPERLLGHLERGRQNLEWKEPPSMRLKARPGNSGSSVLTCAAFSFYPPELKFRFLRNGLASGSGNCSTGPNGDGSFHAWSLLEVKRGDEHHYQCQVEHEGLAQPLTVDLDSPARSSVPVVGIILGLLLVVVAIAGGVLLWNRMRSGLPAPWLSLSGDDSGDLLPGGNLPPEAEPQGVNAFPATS
T2 sequence (b2m, looked up): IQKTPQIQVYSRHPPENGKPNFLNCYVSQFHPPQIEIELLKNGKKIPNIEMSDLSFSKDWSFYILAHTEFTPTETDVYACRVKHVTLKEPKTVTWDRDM
Description: Rat-2 (KCTC #AC28203), rat fibroblasts stably expressing rat FcRn, were cultured in 10% FBS DMEM medium, and then detached from the culture plate by trypsin treatment. The cells were washed three times with cold binding buffer (PBS pH 6.0, 10 mM EDTA), and then diluted in binding buffer at a concentration of 10⁵ cells/ml. 100 μl of the cell dilution was dispensed into each 1.5-ml tube in such a manner that each tube contained 10⁴ cells, and 1 μl of HL161 antibody (1 mg/ml) was added to the dispensed cells. Next, the cells were incubated on ice. As control antibodies, 1 μl of each of mouse 1G3 antibody and human IgG antibody (Abcam, cat#. 409120), which bind to rat FcRn, was used. The 1G3 antibody was produced and purified from mouse hybridoma cells (ATCC CRL2434). The cells were recovered by centrifugation at 4° C. and 4000 rpm for 5 minutes, after which the cells were washed once with binding buffer and resuspended in 100 μl of binding buffer. As FITC-conjugated secondary antibody, 1 μl of anti-human IgG goat antibody (Invitrogen, cat#. A11013) was added to the cells. In the case of the experiment using anti-rat FcRn mouse antibody, the anti-mouse IgG goat antibody (Invitrogen, cat#. A11001) was incubated with the cells on ice for 1 hour, and then the cells were recovered by centrifugation at 4° C. and 4000 rpm for 5 minutes, washed once with binding buffer, resuspended in 400 μl of binding buffer and analyzed by FACS to examine the cross-reactivity of the HL161 antibodies with rat FcRn (see FIG. 4). An experiment at a pH of 7.4 was performed using binding buffer at a pH of 7.4 in the same manner as the experiment using binding buffer at a pH of 6.0. The degree of the binding of each antibody to rat FcRn was presented as relative MFI based on human IgG.

soluble human FcRn = biological target: T3, soluble human FcRn (human, UniProt P55899 24-297; P61769 21-119); experiment: SPR, shFcRn immobilised, pH 6.0
T3 construct: extracellular domain;mature; Non-covalent heterodimer secreted by 293 cells, purified on IgG Sepharose; also called shFcRn; soluble FcRn
T3 sequence (P55899 24-297, chain 1 of 2): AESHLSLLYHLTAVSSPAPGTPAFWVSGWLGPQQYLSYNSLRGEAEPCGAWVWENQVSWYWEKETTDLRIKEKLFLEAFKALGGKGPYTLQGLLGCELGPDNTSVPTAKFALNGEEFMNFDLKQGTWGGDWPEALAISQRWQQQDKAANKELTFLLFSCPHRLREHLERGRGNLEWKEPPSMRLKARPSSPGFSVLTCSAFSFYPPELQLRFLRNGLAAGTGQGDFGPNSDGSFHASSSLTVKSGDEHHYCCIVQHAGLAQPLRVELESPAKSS
T3 sequence (P61769 21-119, chain 2 of 2): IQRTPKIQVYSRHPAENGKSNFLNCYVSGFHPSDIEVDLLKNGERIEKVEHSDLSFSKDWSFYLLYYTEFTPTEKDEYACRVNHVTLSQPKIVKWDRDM
Description: Measurement of the binding ability of antibody by SPR was performed by immobilizing shFcRn as a ligand onto a Proteon GLC chip (Bio-Rad) and measuring affinity.
The analysis of ligand and analyte was performed using a Proteon GLC chip, and the interaction was analyzed at a pH of 6.0 and a pH of 7.4. Immobilization of the ligand was activated by injecting a 1:1 mixture of 1×EDAC (EDC) and 1× Surfo-NHS for 5 minutes. shFcRn was diluted in 10 mM sodium acetate (pH 4.5) at a concentration of 25 μg/ml and added to the ligand at a flow rate of 30 μl/min for 5 minutes. […] The analyte antibody was allowed to flow on the immobilized chip at a flow rate of 30 μl/min. […] The association time of the analyte antibody was 240 seconds, and the dissociation time was 600 seconds. Regeneration of the chip was performed by injecting 10 mM glycine (pH 2.5) at a flow rate of 100 μl/min for 18 seconds. Based on sensorgrams resulting from six concentrations of the analyte, kinetics analysis was performed using Proteon XPR36 software.

T1 sequence (P55899 24-365, chain 1 of 2): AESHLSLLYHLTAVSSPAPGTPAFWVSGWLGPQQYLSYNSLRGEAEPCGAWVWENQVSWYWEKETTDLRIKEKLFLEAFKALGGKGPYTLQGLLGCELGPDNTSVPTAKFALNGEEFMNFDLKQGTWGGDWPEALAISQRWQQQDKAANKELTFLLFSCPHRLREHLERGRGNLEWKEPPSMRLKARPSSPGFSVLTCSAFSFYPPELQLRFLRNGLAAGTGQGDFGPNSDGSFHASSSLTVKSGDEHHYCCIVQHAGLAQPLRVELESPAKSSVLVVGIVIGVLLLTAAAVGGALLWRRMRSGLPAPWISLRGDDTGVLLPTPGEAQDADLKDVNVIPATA
T1 sequence (P61769 21-119, chain 2 of 2): as the sequence (P61769 21-119, chain 2 of 2) above

B1: HL161-11H (antibody, V domains shown)
VH: QMQLVESGGGLVQPGRSLRLSCAASGFTFSSYAMHWVRQAPGKGLEWVAVISYDGSNKYYADSVKGRFTISRDNSKNTLYLQMNSLRSEDTAVYYCSRGSGGRDAFDVWGQGTMITVSS
VL: DIQMTQSPSTLSASVGDRVTITCRASQSISSRLAWYQQKPGKAPKLLIYKASSLETGVPSRFSGSGSGTEFTLTISSLQPDDFATYYCQQTNSFPLTFGGGTKVEIK
notes: Whole human IgG from pNATAB vectors
Relative MFI(%) at 500nM [1]: 60.4% | binding result (rat FcRn on Rat-2 cells): no binding | koff (soluble human FcRn): 0.00034 s⁻¹ | kon (soluble human FcRn): 970000 M⁻¹ s⁻¹

From patent publication US20160137713A1 (HANALL BIOPHARMA, published 2016)
